Assay results taken from the domain aggregation screens of Martell et al. (2025).

Assay: soluble fraction after stress (log2 fold change); higher = more stays soluble; pooled small domains, quantitative proteomics
Settings: stress: pH 4
How it was run: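 Aggregation propensity is read out as the fold change in how much of each domain remains soluble after acid stress. The custom small-domain libraries were pooled, held at pH 4 and analysed with high-throughput quantitative proteomics. On the log2 scale used, higher values mean more of the domain stayed soluble.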

**Q.** With “HMTDDPGLSRAENRELQTLLLDRGHDIGQPDGLIGAKTRAAIRAEQSRLNMPVNGRGGQKLLRALRL” as the sequence, how does the “soluble fraction (log2)” value read?
**A.** Its value is -0.46.

**Q.** For “HMTDFLKTRIDTLGLSTRTLNALSEANVRTIGGIARKKQEDLLEIDGIGEKGIQEIKKMLGEYGITL”, which “soluble fraction (log2)” value is on record?
**A.** The value was -0.52.

**Q.** Which “soluble fraction (log2)” value does the source give for “HMTDFSDLSFKYNSEEKDVLNSINLKINGGEMTSLVGHSGAGKTTILNLIPRFYEKSKGDISIDGQSIY” here?
**A.** The value was -0.172.

**Q.** Which “soluble fraction (log2)” value does the source give for “HMTDGLTVPMQGVVIRYKAKKGDKVAVGDAVAVLEAMKMEQNIFANKSGTIKEIYIKEGTTVTPGDVLMSI” here?
**A.** Its value is -0.89.

**Q.** Which “soluble fraction (log2)” value does the source give for “HMTDLNDTQIKILELLSADASLSAAKMAGQLGIAGRNVEANIKKLKEKGILIRHGSPKSGYWEIVN” here?
**A.** The value was 0.0328.

**Q.** For “HMTDNSTTTIRNLKIEWLLEEIRNAVRTGVSVDAAVERISNNPFVKPPEDLLNEARIIFLQNAGQI”, which “soluble fraction (log2)” value is on record?
**A.** The value was -0.848.

**Q.** For “HMTDPVLYEERDDIAIITINRPEKKNTLTDAVIQGIADGIDAATKSADVVAVVLRGAGDTLTAGYDLTA”, which “soluble fraction (log2)” value is on record?
**A.** Its value is -1.28.

**Q.** Which “soluble fraction (log2)” value does the source give for “HMTDSDTQDIDVGELRVGHFVFLDLSWIRHPFPLSSFKIQSAEQIKTIRSLGLRRIRYSPGRSGP” here?
**A.** The value was -0.882.

**Q.** With “HMTDSSEILEAALKEAEDAAHEVLNGTFSVQLEPQKAYIRRLQHMLIDRMNLSSTSKGKEPYRSLLVYR” as the sequence, how does the “soluble fraction (log2)” value read?
**A.** The value was -0.601.

**Q.** Which “soluble fraction (log2)” value does the source give for “HMTDTDVLSSRLSALSSGRTSAVRLRDGVLSLVLDVGGLSIEARKAMTTAIESTARATPGVEAVRIAET” here?
**A.** Its value is 0.278.

**Q.** For “HMTDTSFPRLGAPEEELLSFLAKWEIDAEDAHYTKFSLYYQSTGKMMRDWKATWRAWKERQSELNAQR”, which “soluble fraction (log2)” value is on record?
**A.** Its value is -1.05.

**Q.** Which “soluble fraction (log2)” value does the source give for “HMTDVGLEAAKAAALKHAGLSADQVTGLTAKLDWDDGQRVYEVDFWQGSTEYEYEINADGTVRQYESEAH” here?
**A.** The value was -0.469.

**Q.** For “HMTDVRFIDIPVTEHHPWNGMKVRDLQLPPGTLLVFLSHPGEKNTVPHGETVLRSGDVLVLGATAYTGQ”, which “soluble fraction (log2)” value is on record?
**A.** The value was -0.681.

**Q.** With “HMTDVRFISIPIQKEHPWNRKLVSELNLPPGTLLVFLRRTGENIVPNGKTMIQEGDVLVLGASAYR” as the sequence, how does the “soluble fraction (log2)” value read?
**A.** Its value is -1.04.

**Q.** With “HMTEALEFTVEDLRMAGLVNSSFSRRRRELFSEKLGIGYGNGKSLLKKLNGYGITREEFNGAIQSLSD” as the sequence, how does the “soluble fraction (log2)” value read?
**A.** The value was -1.3.

**Q.** Which “soluble fraction (log2)” value does the source give for “HMTEIILTARSGRHAVRHRLEGLGYTLTPEELERVHQRFLAVADAKKEVFDEDLHALMADERGT” here?
**A.** Its value is -0.467.

**Q.** For “HMTEKMILKWKEALERMNDDFTTKDWLNVVIHEMGKSERTAYGWLSDMKRSGIIKDLGYGSWLKVLE”, which “soluble fraction (log2)” value is on record?
**A.** The value was -0.2.

**Q.** For “HMTEKPTREAHILDQLARDGGVLVAALSRELGVSEVTIRSDLRDLEAAGLLQRTHGGAQASSFQTVL”, which “soluble fraction (log2)” value is on record?
**A.** Its value is -0.48.

**Q.** Which “soluble fraction (log2)” value does the source give for “HMTELNNTQRAAVLLLALDEDSAAEVFKHLSAREVQEVSQEMAKLGNISHDQMRQVLDDFYDESEQF” here?
**A.** The value was -1.01.

**Q.** Which “soluble fraction (log2)” value does the source give for “HMTELPLTPRSKRILEMSALEARRLNHSYIGTEHLLMAIIRDGDGVAAKILESLGVNLPNFYTDTVRSIE” here?
**A.** The value was -0.0691.

**Q.** For “HMTELSLSEQAYQQLRRMIVRLDFAPGDVLREEALQEALGMSRTPIREALQRLAREHFVTVIPRRGMFVS”, which “soluble fraction (log2)” value is on record?
**A.** The value was -1.22.

**Q.** Which “soluble fraction (log2)” value does the source give for “HMTELVIPDYFSKALAKNKKAKQVFEAFAYSHRKEYLQWITEAKTEETRNKRMATAIEWIAEGKGRNWKYA” here?
**A.** The value was at least 0.43.

**Q.** With “HMTEPIESVTTIAGRRIPYRLVRSLRARRMRMTIKESQVTVTLPRGVPLGEAERFLQQNAAWLFKQLDKP” as the sequence, how does the “soluble fraction (log2)” value read?
**A.** The value was 0.162.

**Q.** For “HMTESIHVGSKVTINNNAKRWATGQNIYSGVKGKTYTVIQMNGSRLLLDKVISWINKGDVHLPGS”, which “soluble fraction (log2)” value is on record?
**A.** Its value is 0.0896.

**Q.** Which “soluble fraction (log2)” value does the source give for “HMTESIKRDEAIRLNNGRIYTLDAAKIGTNEYEVMLFNPRTGEEIDSAKTSTEADAILQFDRLRRMYHR” here?
**A.** Its value is -0.151.

**Q.** With “HMTETELYDEVNRLIGLHLSERDRMILIMRDRDEFEIDAIAARTGLSEGNIRLILSRARRTVREAYRNNI” as the sequence, how does the “soluble fraction (log2)” value read?
**A.** Its value is -1.6.

**Q.** Which “soluble fraction (log2)” value does the source give for “HMTETNSVTINERLTLYRRSRSGRWQARVKLNTGEWHRFSTGTADFEKAKESAHRELHNVGFRAENNLPQ” here?
**A.** Its value is -0.174.

**Q.** Which “soluble fraction (log2)” value does the source give for “HMTFDWAAYEISEKEIRVMSLVAEGFSNKEIAQELFLSEGTVRNYISNILEKLGLRDRTQLAVHYLKAV” here?
**A.** The value was -1.52.

**Q.** For “HMTFENMFIENSGETLDREFLVENLRGISWQSYDRSVDVLVSRLRGKLGETPNNTRFIKTIHGVGYKFIGE”, which “soluble fraction (log2)” value is on record?
**A.** The value was -0.472.

**Q.** With “HMTFGENLIRLRRQQGLSQEQLGMRIGVSRQTVSKWELNDTTPEMEKLIALADLFGLSLDELTGRV” as the sequence, how does the “soluble fraction (log2)” value read?
**A.** Its value is -0.392.

**Q.** Which “soluble fraction (log2)” value does the source give for “HMTFNLDVDGDDQVTALGDGLMIIRKLFGATFAGDALTNKAISPDATRTTDEIHAYIEKGITSGVLD” here?
**A.** Its value is -0.288.

**Q.** Which “soluble fraction (log2)” value does the source give for “HMTFPAILRELLEKHPQTGKRTTLKELGEAVGTRQQSISLYRNGDTQPSPDILVRIAAFFGVSVDYLL” here?
**A.** Its value is -0.198.

**Q.** With “HMTFPYTSLKDAPKNMKEIDGVPLTLDQVNQIAKVADSIGVSKEKNGYAIAKSQFKKSHHIENNRWVKNK” as the sequence, how does the “soluble fraction (log2)” value read?
**A.** Its value is 0.126.

**Q.** For “HMTFVHTQIEATKEWIISHPLDKHPAVAVVDSAGSIVIGEVDYISKSIVRLRFTAEFSGKAYL”, which “soluble fraction (log2)” value is on record?
**A.** Its value is -1.79.

**Q.** For “HMTGAEGKLARYLLTVPSGEPLRLSATDLAKRLGISRASLYRAFQALEDARLIRREGKSMYVLDPAGLEGV”, which “soluble fraction (log2)” value is on record?
**A.** Its value is at least 0.43.

**Q.** With “HMTGENWAERSRQLAAAGLLVLGKEAQEKIASLPNLIPLIEAAAASDTRLLNAQTIDELLSFVPTEETI” as the sequence, how does the “soluble fraction (log2)” value read?
**A.** Its value is -0.98.

**Q.** With “HMTGESVPAPLSGTIFKILVAPGEQVEEGQTVIILEAMKMETEISAPRSGVVGAINIKEGDSVQVGQSLFT” as the sequence, how does the “soluble fraction (log2)” value read?
**A.** Its value is 0.104.

**Q.** Which “soluble fraction (log2)” value does the source give for “HMTGIKISVDRLQIGNYVKLPLNWKDHPFLFSSFAIKSQEEIDLIRRLGLKQVIMFPDKSSMPPKPV” here?
**A.** Its value is -0.0359.

**Q.** With “HMTGLSNFEFNQIKLDLMHELTQTPLRLTDLVNRITSFENEKTITVIRFLVDEGILLLKDDTLSVAKID” as the sequence, how does the “soluble fraction (log2)” value read?
**A.** Its value is -1.47.

**Q.** With “HMTGMEAAEFGKRIMKLRKQKGMTQSKLAEQINVSNKAISRWETGEGFPEITLLKPLAKALGTTVDELFGE” as the sequence, how does the “soluble fraction (log2)” value read?
**A.** The value was -0.271.

**Q.** With “HMTGMEKFLTIPSIRESTAAFEREYLIHYLDENAWQVSKTAAAIGIERTTLYKKMKQLGIVPIEE” as the sequence, how does the “soluble fraction (log2)” value read?
**A.** The value was -0.166.

**Q.** With “HMTGNWRQMHKVKSKETIYGIAKEYGITVDELTKANPGMEAPGYTLKKGDYIFIPYATADANV” as the sequence, how does the “soluble fraction (log2)” value read?
**A.** Its value is 0.0315.

**Q.** For “HMTGQEGLIGAHGVALTRLSNEEGEVKVQGEIWQARSDQEVAKGASIEVVHVDGLVLTVRPQH”, which “soluble fraction (log2)” value is on record?
**A.** The value was 0.175.

**Q.** Which “soluble fraction (log2)” value does the source give for “HMTGQLTEEELKQRQERAMSNPEIQGILSDPVMRQVLQDMSTDPKAAAEHQRNPTIMAKIQKLINAGIVQV” here?
**A.** The value was -0.0717.

**Q.** With “HMTGSETLQDIFAHLEAGTVRTALSLIPRLDAVEYEQNRQRIAELAGVRPSALDDLRKQAKREEN” as the sequence, how does the “soluble fraction (log2)” value read?
**A.** Its value is -0.434.

**Q.** For “HMTGTKEQQVVMLNNILQKQLQAFELQGKRDYPMVTMKNMYNTLSKMVENAGLQTVESYFVDPIKGQQM”, which “soluble fraction (log2)” value is on record?
**A.** The value was -0.266.

**Q.** Which “soluble fraction (log2)” value does the source give for “HMTGVEAIERYLASGVIPGVGPVLAKRLVERFGARTLEVIEDSPRRLTQVPGIGRQKARQIHQALKAQRE” here?
**A.** The value was 0.0508.

**Q.** With “HMTGYVMIRVDGLSLEKFLNMAAEAGVRVSDVRRASYTVLYAVVSPRDLKKLQSVAPEKYTVTVR” as the sequence, how does the “soluble fraction (log2)” value read?
**A.** The value was -0.23.

**Q.** With “HMTHANAALTPRHRLKVARLVVDEGWPVSEVAARFQVSWPTVKRWADRYRAGQSMQDRSSRP” as the sequence, how does the “soluble fraction (log2)” value read?
**A.** Its value is 0.228.

**Q.** Which “soluble fraction (log2)” value does the source give for “HMTHEAEDLNALRMMVRDPIFSSDEPDLQQLRGAVAHAPQFVDRFKELYNDYQRLAEFVQNSL” here?
**A.** The value was -1.

**Q.** Which “soluble fraction (log2)” value does the source give for “HMTHFRTDERRREILSTIEADGRVSVSEIASRFDVSPVTIRSDLNYLAIQGKLKRVRGGAVLLDH” here?
**A.** Its value is 0.275.

**Q.** Which “soluble fraction (log2)” value does the source give for “HMTIDNPESQKIMDMVPFFFQSRNYDEAIEALTYVIEQEPQFSEAYNKRATFYFMMGDLENSMKDIEITLA” here?
**A.** Its value is -0.568.

**Q.** For “HMTIGIGKSLDFNTSGEKAYRIYNFKGAYVGTFKASDMTSLKNEVQKSNVKAGAYMVRSLDGHVNRLIEIK”, which “soluble fraction (log2)” value is on record?
**A.** Its value is at least 0.43.

**Q.** With “HMTIGKIVNIIEGSYANVRSAPDQNSEPIGRAYPGDAFLVDPLGSSGDWVKVTYEGQSGFIFQAYISV” as the sequence, how does the “soluble fraction (log2)” value read?
**A.** Its value is -1.28.

**Q.** With “HMTIGKRIKRRRIELKMSIDSLARTIGKDRSTVYRYESGAIDKVSSDVLAKLATALNTTPAYLIGL” as the sequence, how does the “soluble fraction (log2)” value read?
**A.** The value was 0.22.
